Reference: the supplement of paper PMC10567573

B1: SMOC2 (parent)
chain: PALETQPQGDEEDIASRYPTLWTE
B2: IMPA1 (parent)
chain: FIGEESVAAGEKSILTDNPTWIID

Variants of: B1
Test: protein stability index of a GFP-peptide fusion (GPS, HEK-293T) (PSI 1-6); higher = more stable
Conditions: c terminus: a fixed tail appended
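Further: lentivirally expressed fusions sorted by FACS into six bins by GFP to DsRed ratio, PSI derived from sequencing read proportions per bin multiplied by bin number.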

Protein stability index, by site and new letter:
P7: E 4.67; V 4.06; K 3.38; W 4.02; R 3.81; G 4.5; N 4.48; S 4.68; D 4.67; I 5.37; Y 4.28; H 4.29; M 4.62; F 4.08; C 4.46; Q 5.02; T 4.54; A 4.07; L 4.6
Q6: G 5.04; T 4.7; C 4.7; R 4.34; Y 4.66; E 4.39; I 4.77; N 4.3; H 4.73; V 3.97; F 4.25; K 4.26; W 4.15; L 4; D 4.92; P 4.55; M 4.13; A 4.44
P1: S 4.78; C 3.24; F 3.44; Q 3.91; V 4.24; D 4.56; E 4.63; R 4.74; T 4.58; Y 3.1; N 4.08; M 4.25; K 4.04; A 4.26; G 4.33; L 4; H 4.32; I 4.09; W 3.84
E4: T 4.46; H 3.77; N 4.31; Q 4.9; W 3.52; V 4.11; C 3.96; G 4.07; A 4.42; Y 2.74; M 3.95; K 4.31; L 4.22; F 3.64; D 4.91; I 3.21; S 4.32; R 3.77
A2: D 5.13; C 4.4; M 4.6; T 4.11; F 4.53; L 5.17; G 5.22; I 4.07; K 4.13; R 3.7; N 5.04; V 4.67; Y 4.61; E 4.48; Q 4.54; H 4.74; S 4.88; W 3.88
L3: V 4.87; C 5.01; E 5.59; F 4.85; S 5.03; W 4.04; K 4.27; H 4.36; G 4.33; N 4.23; Q 4.97; I 5.31; Y 4.81; M 4.83; T 4.9; D 5.37; P 5.08; R 4.44
T5: G 4.3; P 4.58; K 3.88; V 3.77; W 4.51; N 4.54; A 4.8; D 5.12; M 5.01; L 4.45; R 4.93; F 4.58; H 4.64; I 4.45; C 4.61; Y 4.65; Q 4.72; S 4.3; E 4.99
Q8: A 4.88

Variants of: B2
Test: as above
Conditions: c terminus: a fixed tail appended

Protein stability index: each site, then its substitutions
D24: Y 2.33; G 2.44; C 1.72; R 1.59; Q 2.15; H 2.01; I 1.16; L 2.05; A 1.71; V 1.86; E 2.03; S 1.76; F 2.2; P 2.04; K 2.07; N 1.66; M 2.05; T 1.7; W 2.06
I23: S 2.27; D 3.04; W 2.59; Q 3.39; C 3.44; F 2.81; T 1.92; M 2.52; K 3.64; V 2.02; Y 3.45; A 1.84; E 3.85; G 2.99; L 3.6; P 3.04; R 3.9; N 3.55; H 3.75
D17: F 2.25; Y 1.48; G 2.08; M 2.13; T 1.63; N 1.85; H 1.93; W 2.23; Q 1.78; E 2.6; S 1.71; C 1.66; A 1.54; K 1.46; V 1.55; R 1.68; P 2; I 2.7; L 2.06
P19: E 3.51; T 2.83; R 1.96; S 2.38; D 3.09; W 1.96; Y 2.18; I 2.32; L 1.97; V 2.39; M 2.27; A 2.41; Q 2.92; G 3.13; H 3.02; C 1.76; K 2.2; F 2.35; N 2.89
L15: Y 2.05; K 2.47; R 2.17; P 2.57; E 2.61; A 2.33; G 2.77; V 2.52; H 2.22; M 2.15; T 2.33; Q 2.28; S 2.33; I 1.98; W 2.48; C 2.3; F 2.06; D 2.83; N 2.78
T20: Y 1.7; W 2.03; G 2.71; S 2.56; Q 3.09; V 2.65; N 3.1; D 3.32; R 2.73; E 3.67; K 3.4; A 2.43; I 1.73; C 2.2; F 2.29; M 1.82; L 2.05; H 2.67; P 2.25
T16: R 2.37; A 2.35; S 1.94; Y 1.64; V 2.21; D 3.17; N 2.89; E 2.64; C 3.16; G 2.11; W 1.72; P 1.26; Q 2.19; F 1.66; I 1.41; K 2.73; L 1.83; M 2.38; H 2.38
I22: K 2.48; D 4.58; A 1.76; M 2.57; P 3.76; C 2.18; S 2.35; V 2.31; Y 2.82; H 3.37; E 4.71; R 2.09; W 2.33; N 3.12; L 2.67; T 1.68; Q 2.75; F 2.01; G 3.11
I14: L 1.78; P 2.33; K 2.54; Y 1.91; H 2.44; S 2.32; V 2.23; G 2.38; R 1.99; Q 2.01; N 2.23; T 2.6; M 2.15; W 2.22
N18: T 2.84; L 2.88; Q 2.86; K 2.73; F 2.46; E 3.48; M 2.6; D 3.68; H 2.95; R 2.31; P 3.14; V 2.75; G 2.71; W 2.1; C 2.64; S 3.05; A 3.01; Y 2.62; I 2.71
W21: L 4.06; C 4.23; D 4.85; P 4.67; E 5.07; M 4.69; H 4.71; T 4.87; S 4.41; Q 4.65; Y 3.96; R 4.48; N 4.57; G 4.71; A 4.65; K 4.78; I 3.92; F 3.89; V 4.95
